Measured values: patent JP2000515494A
Substitutions are numbered along the chain they refer to. Where “and” joins values, the source holds several entries; their conditions need not be identical. Equal values may be shown once. Each block holds one binder with its values, some of them ahead of it.

Assays:
[1] = biological target: 組換えヒトIL-5 (recombinant human interleukin-5) (human) (UniProt P05113); test: optical biosensor (BIAcore)
[2] = biological target: 組換えヒトIL-5 (recombinant human interleukin-5) (human) (UniProt P05113); test: cell-based or functional assay
[3] = biological target: hIL-5/IL-5レセプターα鎖複合体 (hIL-5 captured on IL-5RαFc) (human) (UniProt P05113); test: ELISA (europium fluorescence), IL-5RαFc on protein A + IL-5, mAb added; concentration 8 ng/ml
[4] = biological target: hIL-5/IL-5レセプターα鎖複合体 (hIL-5 captured on IL-5RαFc) (human) (UniProt P05113); test: ELISA (europium fluorescence), IL-5RαFc on protein A + IL-5, mAb added; concentration 32 ng/ml
[5] = biological target: hIL-5/IL-5レセプターα鎖複合体 (hIL-5 captured on IL-5RαFc) (human) (UniProt P05113); test: ELISA (europium fluorescence), IL-5RαFc on protein A + IL-5, mAb added; concentration 2 ng/ml
[6] = biological target: hIL-5/IL-5レセプターα鎖複合体 (hIL-5 captured on IL-5RαFc) (human) (UniProt P05113); test: ELISA (europium fluorescence), IL-5RαFc on protein A + IL-5, mAb added; concentration 0 ng/ml
[7] = biological target: 組換えヒトIL-5 (recombinant human interleukin-5) (human) (UniProt P05113); test: inhibition of 125I-IL-5 binding to IL-5Rα (Drosophila membranes), dose dependent
[8] = biological target: 組換えヒトIL-5 (recombinant human interleukin-5) (human) (UniProt P05113); test: optical biosensor

B1: ネズミモノクローナル抗体2E3 (antibody, from another filing, mouse IgG2a, V domains shown)
VH: PGLVAPSQSLSITCTVSGFSLTSYSVHWVRQPPGKGLEWLGVIWASGGTDYNSALMSRLSISKDNSKSQVFLKLNSLQTDDAAMYYCARDPPFSLLRLDFWGQGTTLTVSS
VL: SSLSVSAGEKVTMSCKSSQSLLNSGNQKNYLAWYQQKPGQPPKLLIYGASTRESGVPDRFTGSGSGTDFTLTISSVQAEDLAVYYCQNDHSFPFTFGSGTELEIK
- Kd [1]: 0.02 nM and < 0.035 nM
- ネズミB13の増殖の阻害 (B13 proliferation assay) [2]: > 70%

B4: mAb 2B6から由来のFab (recombinant 2B6 Fab, hexa-His) (Fab, from another filing, V domains shown)
VH: QVQLKESGPGLVAPSQSLSITCTVSGFSLTSYSVHWVRQPPGKGLEWLGVIWASGGTDYNSALMSRLSISKDNSKSQVFLKLNSLQTDDTAMYYCARDPPSSLLRLDYWGQGTTLTVSS
VL: DIVMTQSPSSLSVSAGEKVTMSCKSSQSLLNSGNQKNYLAWYQQKPGQPPKLLIYGASTRESGVPDRFTGSGSGTDFTLSISSVQAEDLAVYYCQNVHSFPFTFGSGTELEIK
- IC50 [7]: 7.5 µg/mL
- Kd [8]: 0.09 nM

Further lines, results first:

- ネズミB13の増殖の阻害 (B13 proliferation assay) [2]: > 70%
B2: ネズミモノクローナル抗体2F2 (antibody, from another filing, V domains shown)
VH: B1 VH with Q78R, A82T, F93S, F100Y
VL: B1 VL

- 結合(個数) [3]: 3200 個数
- Kd [1]: 0.022 nM and < 0.035 nM
- 結合(個数) [4]: 4980 個数
- 結合(個数) [5]: 2940 個数
- ネズミB13の増殖の阻害 (B13 proliferation assay) [2]: > 70%
- 結合(個数) [6]: 2770 個数
B3: ネズミモノクローナル抗体2B6 (antibody, from another filing, V domains shown)
VH: B4 VH
VL: B4 VL
